Data as given in PMC549569.

Biological target: αCP1-KH3 (third KH domain of poly(C)-binding protein 1, PCBP1/hnRNP E1) (UniProt Q15365 279-356)
Experiment: SPR

Chain of αCP1-KH3 (third KH domain of poly(C)-binding protein 1, PCBP1/hnRNP E1) (Q15365 279-356): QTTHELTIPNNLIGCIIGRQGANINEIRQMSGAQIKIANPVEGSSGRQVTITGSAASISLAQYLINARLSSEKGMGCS

CUCUCCUUUCUUUUUCUUCUUCCCUCCCUA (ssRNA) [AR mRNA 3'-UTR 30 nt UC-rich RNA (nt 3296-3325)] gave a Kd of 4.37 µM.
